Reference: patent US20080248008A1, “Inhibitors of Protein Kinase a Anchoring” (priority 2004, published 2008)
Entries after “also recorded” stand apart in the source; their conditions may differ. Ends that are not written are not given here.

Tests used:
PKA-RIIα [1] = target: T1, PKA-RIIα (Homo sapiens, UniProt P13861); assay: Immunofluorescence of PKA-RIIα at centrosomes in human T cells; assay type: cell-based; design: endogenous in cells; host or cells: human peripheral blood CD3+ T cells; conditions: human peripheral blood T cells
Description: Blots were developed by using Supersignal West Pico substrate (Pierce). For immunofluorescence polyclonal and monoclonal antibodies against RIα (Biogenesis), RIIα (Transduction laboratories) and AKAP450 (A24, Tasken et al., 2001, J. Biol. Chem, 276:21999-22002) were used as primary antibodies. Secondary antibodies (all Molecular Probes) were Alexa-488 conjugated anti-mouse and anti-rabbit IgG (both goat) and Alexa-555 anti-rabbit IgG (goat).
Immunofluorescence analysis of cells was performed as previously described (Collas, P. et al., 1996, J. Cell Biol. 135, 1715-1725). RI was detected by using an anti-RI monoclonal antibody (Transduction Laboratories) as a primary antibody at a […] and Alexa-488 as a secondary antibody (1:600, Goat anti Mouse IgGs, Molecular Probes). Immunofluorescence was performed on Y1 cells attached to collagen/fibronectin coated coverslips. Mitochondria were stained using MitoTracker Red CMXRos (Molecular Probes) in fresh medium with incubation at 37° C. for 30 min prior to cell fixation. All cells were washed in PBS, fixed with 3% paraformaldehyde and permeabilised using 0.1% Triton X-100. […] Alternatively, fluorescently labeled cells were examined using a Leica TCS SP1 confocal fluorescence microscope (Leica, Heidelberg, Germany) equipped with an Ar (488 nm) and two He/Ne (543 and 633 nm) laser lines. […]

PKA-RIIα [2] = target: T1, PKA-RIIα; assay: Displacement of PKA-RII from the particulate fraction in T cells; assay type: cell-based; design: endogenous in cells; host or cells: human peripheral blood CD3+ T cells; conditions: 25 μM or 50 μM
Description: Displacement of PKA-RII from the particulate Fraction in T-cells. Negatively selected CD3^+ T-cells (20×10^6/3 ml/well) were cultured in 6-well plates with 0-50 μM Arg11-SuperAKAPIS (or 0-50 μM M3-Arg11) for 12 hours. Cells were lysed in 250 μl lysis buffer (50 mM Tris pH 7.4, 100 mM NaCl, 5 mM EDTA, 50 mM NaF, 10 mM Na-pyrofosfat, 1 mM Na3VO4, 1 mM PMSF, 0.7% triton X-100) and centrifuged at 14 000×g for 10 min. The sedimented proteins were resuspended in loading dye before being resolved by SDS/PAGE and detected by immunoblotting.
To assess the effect of MEME3-Arg11 on anchoring of PKA type II, T cells were treated with MEME3-Arg11 or Arg11-super-AKAP-is (as a positive control) and particulate fractions were isolated, followed by 10% PAGE and blotting onto a PVDF membrane (fraction no. 2-4, FIG. 17 in upper panel) and analysed by immunoblotting using antibodies against PKA-RIIα (FIG. 17, upper panel). The levels of PKA-RIIα in the particulate fractions were measured by densitometry of the autoradiograms (lower panel). The level of PKA-RIIα was set relative to that of the internal standard PKCα.

RI (A98S) = target: T2, RI (A98S) (Bos taurus, UniProt P00514, A98S); assay: R-overlay (solid-phase binding) of 32P-labelled RI on membrane-synthesized peptides; design: species or system bovine; conditions: for RI binding (RI-32P-overlay, autoradiography): peptides on membrane, qualitative
T2 construct: made in house; host or cells: E. coli BL21 (B121 [sic])
Description: Autospot Peptide Array. Peptide arrays were synthesized on cellulose paper by using an Autospot Robot ASP222 (ABiMED, Langenfeld, Germany) as described (Frank, R., 1992, Tetrahedron 48, 123-132) or Multipep automated peptide synthesizer (INTAVIS Bioanalytical Instruments AG, Koeln, Germany) as described (Frank, R., 1992, Tetrahedron 48, 123-132).
R-overlay. R-overlays were conducted as described, using ^32P-labeled recombinant murine RII (Hausken, Z. E., et al., 1998 in Protein Targeting Protocols, ed. Clegg, R. A. (Humana, Totowa, N.J.), Vol. 88, pp. 47-64) or recombinant bovine RI (A98S) or by cold RI-overlay where bound RIα was detected by Western blot. Cold RI-overlay was performed by incubating the membranes with 250 nM RI overnight at 4° C., then the membranes were washed five times in TBST for 5 min. Detection of RI was performed using an anti-RI rabbit polyclonal antibody (Santa Cruz) at a concentration of 0.2 μg/μl for 1 hour at 4° C. Then the membranes were washed five times for 5 minutes in PBS followed by incubation with HRP-conjugated anti-rabbit IgGs (1:5000) for 1 hour at 4° C. The membranes were washed in PBS as described above before detection by Supersignal West Dura Extended Duration Substrate (Pierce).
Densitometric analysis. The densitometric analysis was performed using Scion Image (www.scioncorp.com) (Scion Coorperation, Mo., USA) or Quantity One version 4.5.0, (BioRad).

T2 sequence (P00514 whole entry A98S): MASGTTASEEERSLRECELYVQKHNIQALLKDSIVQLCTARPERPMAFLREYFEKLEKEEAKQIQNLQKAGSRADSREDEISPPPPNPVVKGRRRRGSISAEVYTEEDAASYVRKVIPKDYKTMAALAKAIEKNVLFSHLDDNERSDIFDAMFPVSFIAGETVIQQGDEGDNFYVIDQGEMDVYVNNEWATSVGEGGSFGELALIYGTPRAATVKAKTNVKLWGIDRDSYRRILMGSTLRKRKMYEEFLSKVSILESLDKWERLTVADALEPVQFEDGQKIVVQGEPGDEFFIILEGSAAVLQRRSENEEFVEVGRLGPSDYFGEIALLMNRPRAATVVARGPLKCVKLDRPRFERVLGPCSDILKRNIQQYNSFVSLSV
T1 sequence (P13861 whole entry): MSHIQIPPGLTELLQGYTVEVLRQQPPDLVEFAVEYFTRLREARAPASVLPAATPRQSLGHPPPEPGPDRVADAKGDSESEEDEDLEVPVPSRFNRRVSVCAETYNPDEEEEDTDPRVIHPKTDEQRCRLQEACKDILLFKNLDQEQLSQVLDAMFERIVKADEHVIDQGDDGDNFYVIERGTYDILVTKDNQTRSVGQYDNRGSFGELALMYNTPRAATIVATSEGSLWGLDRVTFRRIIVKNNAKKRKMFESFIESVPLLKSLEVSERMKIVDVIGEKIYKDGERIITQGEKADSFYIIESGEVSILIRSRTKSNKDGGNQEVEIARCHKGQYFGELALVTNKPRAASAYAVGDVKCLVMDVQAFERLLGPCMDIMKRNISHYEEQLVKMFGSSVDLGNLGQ

Arg11-super-AKAP-is: RIIα specific peptide, SuperAKAPIS (QIEYVAKQIVDYAIHQA) with eleven arginine residues (also: eleven arginine residues attached (Arg11), place not given here) [reference compound]
displacement of PKA-RIIα from centrosomes (PKA-RIIα [1]): specifically displaced PKA-RIIα | reduction of PKA-RIIα in particulate fraction (PKA-RIIα [2]): approximately 80%

DELKQYANQLASQVIKEATE [PDSM consensus sequence]
RI binding (RI-32P-overlay, autoradiography) (RI (A98S)): higher affinity for RI than the other R-binding motifs

LEQYANQLADQIIKEATe [E18e]
R-binding of D-amino acid derivatives (RIα and RIIα overlay) (RI (A98S); peptidomimetics on membrane): accepted

LKQYANQLASQVIKEATE [PDSM]
RI binding (RI-32P-overlay, autoradiography) (RI (A98S)): same RI binding affinity as the full length PDSM sequence; also recorded: much higher RIα affinity compare to that of PV-38; also recorded: higher binding to RIα
